# Assay results taken from US20220280659A1, “Targeted Nanoparticles of Well-Defined and Reproducible Sizes” (STAMS DIAGNOSTICS GMBH, priority 2019, published 2022).
# Test: Zeta Potential (surface charge) by electrophoretic mobility / PCS, PSS NICOMP 380 DLS/ZLS
# Format: physicochemical
# Conditions: FIG. 5; pH 7
# Experimental: The surface charge (also referred to as Zeta potential) of the nanoparticles was determined by measuring their electrophoretic mobility using a PSS NICOMP™ 380 DLS/ZLS. Measurements were made at particle concentrations of 6 to 15 mg/ml, temperatures between room temperature to 50° C., and applying an external voltage of 5 Volts.
# The surface charge (also referred to as Zeta potential or ζ-potential) may be measured using Zeta Sizer as e.g. PSS NICOMP™ 380 DLS/ZLS. Zeta Charge, or Net Surface Charge of a molecule or a particle is measured by PCS in the presence of an applied electrical field.
substance,measurement,value
human serum albumin [cleaned and stabilized albumin molecules],"global surface charge, PCS based measurement of the Zeta Potential",about −5 mV
